Measured values from the Immune Epitope Database (IEDB).

What was measured:
HLA-A*26:01 = assay: IEDB peptide-MHC binding, purified MHC/competitive/fluorescence; filed as Kd, often an IC50 or EC50 that approximates it; ≥ and ≤ were set here for values at or beyond the usual limits of such assays
HLA-B*18:01 [1] = assay: IEDB peptide-MHC binding, purified MHC/direct/fluorescence; filed as Kd, often an IC50 or EC50 that approximates it; ≥ and ≤ were set here for values at or beyond the usual limits of such assays; details: source organism: West Nile virus strain PTRoxo
HLA-B*44:02 = assay: as above; details: source organism: West Nile virus strain PTRoxo
HLA-A*29:02 = assay: as above; details: source organism: West Nile virus strain PTRoxo
HLA-B*15:01 [2] = assay: as above; details: source organism: West Nile virus strain PTRoxo
HLA-A*30:01 = assay: as above; details: source organism: West Nile virus strain PTRoxo
HLA-B*58:01 = assay: as above; details: source organism: West Nile virus strain PTRoxo
HLA-B*51:01 = assay: as above; details: source organism: West Nile virus
HLA-A*80:01 = assay: as above
HLA-A*25:01 = assay: as above; details: source organism: West Nile virus strain PTRoxo
HLA-B*57:01 = assay: as above; details: source organism: West Nile virus strain PTRoxo
HLA-B*45:06 = assay: IEDB peptide-MHC binding, purified MHC/competitive/fluorescence; filed as Kd, often an IC50 or EC50 that approximates it; ≥ and ≤ were set here for values at or beyond the usual limits of such assays
HLA-B*15:42 = assay: as above
HLA-B*27:20 = assay: as above
HLA-B*40:13 = assay: as above; details: source organism: Methylibium petroleiphilum PM1
HLA-C*06:02 [3] = assay: as above; details: source organism: Methylibium petroleiphilum PM1
HLA-B*83:01 = assay: as above
HLA-C*14:02 = assay: as above; details: source organism: Methylibium petroleiphilum PM1
HLA-B*15:02 = assay: as above; details: source organism: Methylibium petroleiphilum PM1
HLA-C*07:02 = assay: IEDB peptide-MHC binding, purified MHC/direct/fluorescence; filed as Kd, often an IC50 or EC50 that approximates it; ≥ and ≤ were set here for values at or beyond the usual limits of such assays; details: source organism: Methylibium petroleiphilum PM1
HLA-C*15:02 = assay: as above; details: source organism: Methylibium petroleiphilum PM1
HLA-B*18:01 [4] = assay: IEDB peptide-MHC binding, purified MHC/competitive/fluorescence; filed as Kd, often an IC50 or EC50 that approximates it; ≥ and ≤ were set here for values at or beyond the usual limits of such assays; details: source organism: Human immunodeficiency virus 1
HLA-B*08:01 = assay: as above; details: source organism: Human immunodeficiency virus 1
HLA-B*08:03 = assay: as above; details: source organism: Human immunodeficiency virus 1
HLA-A*26:03 = assay: as above; details: source organism: Human immunodeficiency virus 1
HLA-A*01:01 = assay: as above; details: source organism: Human immunodeficiency virus 1
HLA-B*15:01 [5] = assay: as above; details: source organism: Human immunodeficiency virus 1
HLA-A*26:02 = assay: as above; details: source organism: Human immunodeficiency virus 1
HLA-A*11:01 = assay: as above; details: source organism: Human immunodeficiency virus 1
HLA-B*15:09 = assay: as above; details: source organism: Human immunodeficiency virus 1
HLA-B*40:02 = assay: IEDB peptide-MHC binding, cellular MHC/competitive/fluorescence; ≥ and ≤ were set here for values at or beyond the usual limits of such assays; details: source organism: Homo sapiens
HLA-A*24:02 = assay: IEDB peptide-MHC binding, purified MHC/competitive/fluorescence; filed as Kd, often an IC50 or EC50 that approximates it; ≥ and ≤ were set here for values at or beyond the usual limits of such assays; details: source organism: Hepacivirus hominis
HLA-C*04:01 = assay: IEDB peptide-MHC binding, purified MHC/direct/fluorescence; filed as Kd, often an IC50 or EC50 that approximates it; ≥ and ≤ were set here for values at or beyond the usual limits of such assays; details: source organism: Japanese encephalitis virus
HLA-B*48:01 = assay: as above; details: source organism: Burkholderia mallei
HLA-B*73:01 = assay: as above; details: source organism: Burkholderia mallei ATCC 23344
HLA-B*27:05 = assay: as above; details: source organism: Burkholderia mallei
HLA-C*06:02 [6] = assay: as above; details: source organism: human gammaherpesvirus 4
[7] = source organism: West Nile virus
[8] = source organism: Methylibium petroleiphilum PM1
[9] = source organism: Hepacivirus hominis
[10] = source organism: human gammaherpesvirus 4

Sequence EIPDVLNSL has a Kd (HLA-A*26:01; [7]) of 277 nM, a Kd (HLA-B*18:01 [1]) of at least 20000 nM and a Kd (HLA-B*44:02) of at least 20000 nM. It also gave a Kd (HLA-A*29:02) of at least 20000 nM, a Kd (HLA-B*15:01 [2]) of at least 20000 nM and a Kd (HLA-A*30:01) of at least 20000 nM. It also gave a Kd (HLA-B*58:01) of at least 20000 nM, a Kd (HLA-B*51:01) of at least 20000 nM and a Kd (HLA-A*80:01; source organism: West Nile virus strain PTRoxo) of at least 20000 nM. For the same sequence, the Kd (HLA-A*25:01) was 23 nM and the Kd (HLA-B*57:01) was at least 20000 nM.
FQMGGIGPM showed a Kd (HLA-B*45:06; [8]) of at least 5000 nM, a Kd (HLA-B*15:42; [8]) of at least 5000 nM and a Kd (HLA-B*27:20; [8]) of 0.3 nM. For the same sequence, the Kd (HLA-B*40:13) was 8.8 nM, the Kd (HLA-C*06:02 [3]) was 513 nM and the Kd (HLA-B*83:01; [8]) was at least 5000 nM. The Kd (HLA-C*14:02) was 13.2 nM, the Kd (HLA-B*15:02) was 14.4 nM and the Kd (HLA-C*07:02) was 448 nM. The Kd (HLA-C*15:02) was 2180 nM.
Sequence GTEEIKSLY has a Kd (HLA-B*18:01 [4]) of 77.7 nM, a Kd (HLA-B*08:01) of at least 20000 nM and a Kd (HLA-A*26:01; source organism: Human immunodeficiency virus 1) of 1570 nM. The Kd (HLA-B*08:03) was at least 20000 nM, the Kd (HLA-A*26:03) was at least 20000 nM and the Kd (HLA-A*01:01) was 13.8 nM. The Kd (HLA-B*15:01 [5]) was at least 20000 nM, the Kd (HLA-A*26:02) was 1210 nM and the Kd (HLA-A*11:01) was at least 20000 nM. The Kd (HLA-B*15:09) was at least 20000 nM.
For KEQSPEPHL, the IC50 (HLA-B*40:02) was 1900 nM.
LLPRRGPRL gave a Kd (HLA-B*45:06; [9]) of at least 5000 nM, a Kd (HLA-B*15:42; [9]) of at least 5000 nM and a Kd (HLA-A*24:02) of 90 nM. For the same sequence, the Kd (HLA-B*83:01; [9]) was at least 5000 nM.
QTDNQLAVF gave a Kd (HLA-C*04:01) of at least 20000 nM and a Kd (HLA-A*80:01; [7]) of at least 20000 nM.
RRHGMAWRQ showed a Kd (HLA-B*48:01) of at least 20000 nM, a Kd (HLA-B*73:01) of 12000 nM and a Kd (HLA-B*27:05) of 213 nM.
RRRKGWIPL was tested, and the Kd (HLA-B*45:06; [10]) was at least 5000 nM, the Kd (HLA-B*15:42; [10]) was at least 5000 nM and the Kd (HLA-B*27:20; [10]) was 0.2 nM. It also gave a Kd (HLA-B*83:01; [10]) of at least 5000 nM and a Kd (HLA-C*06:02 [6]) of at least 20000 nM.
